Results as given in patent US20050064533.

How the values were obtained:
[1] = biological target: recombinant C-terminal 90 amino acids of human HIF-1a, C of the hydroxylation motif changed to alanine, Q16665
[2] = biological target: recombinant C-terminal 90 amino acids of human HIF-1a, D of the hydroxylation motif changed to alanine, Q16665
[3] = biological target: recombinant C-terminal 90 amino acids of human HIF-1a, conserved G 5 amino acids C-terminal to the target asparagine changed to alanine, Q16665
Sequence of recombinant C-terminal 90 amino acids of human HIF-1a, conserved G 5 amino acids C-terminal to the target asparagine changed to alanine, Q16665 (Q16665 other isoform, or with tags, fused parts or gaps): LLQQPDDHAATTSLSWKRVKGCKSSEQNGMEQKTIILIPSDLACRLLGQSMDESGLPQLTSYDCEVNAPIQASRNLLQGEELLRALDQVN

[4] = biological target: recombinant C-terminal 90 amino acids of human HIF-1a, glutamic acid (E) of the hydroxylation motif changed to alanine, Q16665
Sequence of recombinant C-terminal 90 amino acids of human HIF-1a, glutamic acid (E) of the hydroxylation motif changed to alanine, Q16665 (Q16665 other isoform, or with tags, fused parts or gaps): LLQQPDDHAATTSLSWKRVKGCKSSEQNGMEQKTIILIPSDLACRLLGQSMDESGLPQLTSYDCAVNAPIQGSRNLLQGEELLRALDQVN

[5] = biological target: recombinant C-terminal 90 amino acids of human HIF-1a, tyrosine (Y) of the hydroxylation motif changed to alanine, Q16665
Sequence of recombinant C-terminal 90 amino acids of human HIF-1a, tyrosine (Y) of the hydroxylation motif changed to alanine, Q16665 (Q16665 737-826 Y798A): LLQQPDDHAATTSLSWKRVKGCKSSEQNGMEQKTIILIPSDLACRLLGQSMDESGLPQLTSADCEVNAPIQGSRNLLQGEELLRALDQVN

[6] = biological target: recombinant C-terminal 90 amino acids of human HIF-1a, valine preceding the target asparagine changed to alanine, Q16665
Sequence of recombinant C-terminal 90 amino acids of human HIF-1a, valine preceding the target asparagine changed to alanine, Q16665 (Q16665 other isoform, or with tags, fused parts or gaps): as the sequence (Q16665 737-826 Y798A) above, with A62Y, V66A counted along it

[7] = biological target: recombinant C-terminal 90 amino acids of human HIF-1a, wild type, Q16665
Sequence of recombinant C-terminal 90 amino acids of human HIF-1a, wild type, Q16665 (Q16665 737-826): as the sequence (Q16665 737-826 Y798A) above, with A62Y counted along it

Sequence of recombinant C-terminal 90 amino acids of human HIF-1a, C of the hydroxylation motif changed to alanine, Q16665 (Q16665 737-826 C800A): as the sequence (Q16665 737-826 Y798A) above, with A62Y, C64A counted along it
Sequence of recombinant C-terminal 90 amino acids of human HIF-1a, D of the hydroxylation motif changed to alanine, Q16665 (Q16665 737-826 D799A): as the sequence (Q16665 737-826 Y798A) above, with A62Y, D63A counted along it

B1: MBP (maltose binding protein) fused to wild type HIF Asparagine Hydroxylase (HNH) (protein)
chain: MAATAAEAVASGSGEPREEAGALGPAWDESQLRSYSFPTRPIPRLSQSDPRAEELIENEEPVVLTDTNLVYPALKWDLEYLQENIGNGDFSVYSASTHKFLYYDEKKMANFQNFKPRSNREEMKFHEFVEKLQDIQQRGGEERLYLQQTLNDTVGRKIVMDFLGFNWNWINKQQGKRGWGQLTSNLLLIGMEGNVTPAHYDEQQNFFAQIKGYKRCILFPPDQFECLYPYPVHHPCDRQSQVDFDNPDYERFPNFQNVVGYETVVGPGDVLYIPMYWWHHIESLLNGGITITVNFWYKGAPTPKRIEYPLKAHQKVAIMRNIEKMLGEALGNPQEVGPLLNTMIKGRYN
hydroxylation in an in vitro hydroxylation assay [1]: an up to 50% decrease in hydroxylation of the target aspargine | hydroxylation in an in vitro hydroxylation assay [2]: an up to 50% decrease in hydroxylation of the target aspargine | hydroxylation in an in vitro hydroxylation assay [3]: an approximately 50% decrease in hydroxylation | hydroxylation in an in vitro hydroxylation assay [4]: The glutamic acid (E) residue is more important or efficient hydroxylation than D or C | hydroxylation in an in vitro hydroxylation assay [5]: Substituting alanine in place of tyrosine (Y) has little effect | hydroxylation in an in vitro hydroxylation assay [6]: altering this valine to alanine results in very low levels of hydroxylation | hydroxylation assessed by counting liberated 14CO2 [7]: the degree of hydroxylation for each mutant normalised to the level observed for the wild type HIF-1α CAD sequence
